This passage reports Kd results from article PMC3390916 (Chembiochem, 2011).

The assay has as its target growth factor receptor-bound protein 2 (Grb2), recombinant (human, UniProt P62993 1-217). Nature of the assay: SPR.

growth factor receptor-bound protein 2 (Grb2), recombinant, sequence (P62993 whole entry): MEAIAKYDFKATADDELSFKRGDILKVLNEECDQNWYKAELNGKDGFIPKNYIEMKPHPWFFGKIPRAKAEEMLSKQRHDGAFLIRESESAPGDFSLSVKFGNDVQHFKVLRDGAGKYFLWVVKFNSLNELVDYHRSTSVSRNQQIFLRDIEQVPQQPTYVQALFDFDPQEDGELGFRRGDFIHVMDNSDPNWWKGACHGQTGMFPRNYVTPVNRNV

For orientation: Kd means the constant that tells how readily two partners part at equilibrium. For YEVPPPVPPRRRGSC [SH3-binding peptide (YEVPPPVPPRRR)], the Kd stood at 7.5 ± 5.7 mM.
